# According to patent US20170267750A1 (CELLDEX THERAPEUTICS, published 2017):
# Residue numbers refer to the chain shown, from its start.
# B1: anti-TIM-1 monoclonal antibody 2.16 (antibody, V domains shown)
# VH: EQSGGGVVKPGGSLRLSCAASGFTFSNAWMTWVRQAPGKGLEWVGRIKRRTDGGTTDYAAPVKGRFTISRDDSKNTLYLQMNNLKNEDTAVYYCTSVDNDVDYWGQGTLVTVSS
# VL: not shown
# notes: also called 2.16.1 (subclone)
# B2: anti-TIM-1 monoclonal antibody 1.29 (antibody, V domains shown)
# VH: QVQLQESGPGLVKPSETLSLTCTVSGGSVSSGGYYWSWIRQPPGKGLEWIGFIYYTGSTNYNPSLKSRVSISVDTSKNQFSLKLSSVTAADAAVYYCARDYDWSFHFDYWGQGTLVTVSS
# VL: DIQMTQSPSSLSASIGDRVTITCRASQGIRNDLGWYQQKPGKAPKRLIYAASSLQSGVPSRFSGSGSGTEFTLTISSLQPEDFATYYCLQHNSYPLTFGGGTKVEIKR
# notes: also called mAb 1.29
# B3: anti-TIM-1 monoclonal antibody 2.70.2 (antibody, human IgG4, kappa, V domains shown)
# VH: QVQLVESGGGVVQPGRSLRLSCAASGFIFSRYGMHWVRQAPGKGLKWVAVIWYDGSNKLYADSVKGRFTISRDNSKNTLYLQMNSLRAEDTAVYYCARDYYDNSRHHWGFDYWGQGTLVTVSS
# VL: DIVMTQTPLSLPVTPGEPASISCRSSRSLLDSDDGNTYLDWYLQKPGQSPQLLIYTLSYRASGVPDRFSGSGSGTDFTLKISRVEAEDVGVYYCMQRVEFPITFGQGTRLEIKR
# notes: also called mAb 2.70.2; mAb2.70.2
# B4: anti-TIM-1 monoclonal antibody 2.59 (antibody, V domains shown)
# VH: QSGPRLVKPSQTLSLTCTVSGGSISSDGYYWSWIRQHPGKGLEWIGYIYYSGSTFYNPSLKSRVAISVDTSKNQFSLKLSSVTAADTAVYYCARESPHSSNWYSGFDCWGQGTLVTVSS
# VL: TQSPDFQSVTPKEKVTITCRASQSIGSRLHWYQQKPDQSPKLLIKYASQSFSGVPSRFSGSGSGTDFTLTINSLEAEDAATYYCHQSSNLPFTFGPGTKVDIKR
# B5: anti-TIM-1 monoclonal antibody 2.76 (antibody, V domains shown)
# VH: EQSGGGVVQPGRSLRLSCAASGFTFSSYGMYWVRQAPGKGLEWVAVIWYDGSNKYYADSVKGRFTISRDNSKNTLYLQMNSLRAEDTAVYYCARDFYDSSRYHYGMDVWGQGTTVTVSS
# VL: TQCPLSLPVTPGEPASISCRSSQSLLDSDDGNTYLDWYLQKPGQSPQLLIYTVSYRASGVPDRFSGSGSGTDFTLKISRVEAEDVGVYYCMQRIEFPITFGQGTRLEIKR
# B6: anti-TIM-1 monoclonal antibody 2.61 (antibody, V domains shown)
# VH: B3 VH with S7A, I28T, S30R, R31S, L59Y, A61T, A97V
# VL: B2 VL with L11R, S12C, I15V, G34A, G66R, T85A, L96P, T97S, G100Q, V104L
# B7: anti-TIM-1 monoclonal antibody 2.70 (antibody, V domains shown)
# VH: B3 VH
# VL: B3 VL
# B8: anti-TIM-1 monoclonal antibody 1.37 (antibody, V domains shown)
# VH: EVQLVESGGGLVQPGGSLRLSCAASGFTFTNYWMSWVRQAPGKGLEWVANIQQDGSEKYYVDSVRGRFTISRDNAKNSLYLQMNSLRAEDSAVYYCARWDYWGQGTLVTVSS
# VL: DIVMTQTPLSSTVILGQPASISCRSSQSLVHSDGNTYLNWLQQRPGQPPRLLIYMISNRFSGVPDRFSGSGAGTDFTLKISRVEAEDVGVYYCMQATESPQTFGQGTKVEIKR
# Target: T1, TIM-1 (T cell, immunoglobulin domain and mucin domain 1), cell membrane-bound (human, UniProt Q96D42 21-364)
# T1 construct: whole, on cells; also called TIM-1 antigen expressed on ACHN, CAKI-2, CAKI-1 cells; TIM-1 on polarized human CD4+ Th1/Th2 cells
# T1 sequence (looked up): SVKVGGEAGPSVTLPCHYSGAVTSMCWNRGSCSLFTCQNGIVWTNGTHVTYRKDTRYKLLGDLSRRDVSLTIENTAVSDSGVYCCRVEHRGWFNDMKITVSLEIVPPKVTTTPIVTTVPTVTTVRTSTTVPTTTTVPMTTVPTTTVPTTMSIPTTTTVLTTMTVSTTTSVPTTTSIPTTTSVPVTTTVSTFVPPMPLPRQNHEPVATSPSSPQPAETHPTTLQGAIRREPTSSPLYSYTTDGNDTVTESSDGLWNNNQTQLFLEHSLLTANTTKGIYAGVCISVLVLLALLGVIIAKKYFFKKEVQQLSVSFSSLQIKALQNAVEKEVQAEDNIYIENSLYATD
# Assay: FACS on ACHN cells, normalised to isotype control pK16
row,Binder,Geo Mean Ratio (relative to negative control) [ratio]
1,B1,7.9
2,B2,17.9
3,B3,19.4
4,B4,15.2

# Target: T2, TIM-1 antigen, soluble extracellular domain of TIM-1 (CG57008-02) with a V5-HIS tag (human, UniProt Q96D42 21-288)
# T2 construct: also called TIM-1 immunogen; TIM-1 protein
# T2 sequence: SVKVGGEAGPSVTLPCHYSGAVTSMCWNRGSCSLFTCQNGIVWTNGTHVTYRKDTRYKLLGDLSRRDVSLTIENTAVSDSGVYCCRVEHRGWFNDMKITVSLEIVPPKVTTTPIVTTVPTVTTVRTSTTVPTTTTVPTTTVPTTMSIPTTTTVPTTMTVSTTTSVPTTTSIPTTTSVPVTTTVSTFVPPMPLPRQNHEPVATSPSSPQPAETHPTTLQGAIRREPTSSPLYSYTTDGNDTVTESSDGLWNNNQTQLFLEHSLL
# Assay: BIAcore 2000, 25 C, mAb captured on goat anti-human surface, TIM-1 antigen injected at 292 nM
# Method: BiaCore® analysis was used to determine binding affinity of anti-TIM-1 antibody to TIM-1 antigen. The analysis was performed at 25° C. using a BiaCore® 2000 biosensor equipped with a research-grade CMS sensor chip. A high-density goat a human antibody surface over a CMS BiaCore® chip was prepared using routine amine coupling. Antibody supernatants were diluted to ˜5 μg/mL in HBS-P running buffer containing 100 μg/mL BSA and 10 mg/mL carboxymethyldextran. The antibodies were then captured individually on a separate surface using a 2 minute contact time, and a 5 minute wash for stabilization of antibody baseline.
# Double-referenced binding data were obtained by subtracting the signal from a control flow cell and subtracting the baseline drift of a buffer inject just prior to the TIM-1 injection. TIM-1 binding data for each mAb were normalized for the amount of mAb captured on each surface. The normalized, drift-corrected responses were also measured.
row,Binder,Kd [nM]
1,B5,0.57
2,B1,0.79
3,B2,3.64
4,B6,1
5,B7,2.71
6,B4,0.38
7,B8,2.78

# Target: T1, TIM-1 (T cell, immunoglobulin domain …)
# Assay: FACS on CAKI-2 cells, normalised to isotype control pK16
row,Binder,Geo Mean Ratio (relative to negative control) [ratio]
1,B3,8.8
2,B4,7.7

# Target: T3, alanine scan peptide PMPLPRQAHE
# T3 construct: Synthetic; N replaced by A
# T3 peptide: PMPLPRQAHE
# Assay: ELISA on coated synthetic peptide (alanine scan)
row,Binder,binding result
1,B3,no binding

# Target: T4, alanine scan peptide PMPLARQNHE
# T4 construct: Synthetic; third P replaced by A
# T4 peptide: PMPLARQNHE
# Assay: ELISA on coated synthetic peptide (alanine scan)
row,Binder,binding result
1,B3,no binding
